The source of these data is article PMC2710508, “A Peek into Tropomyosin Binding and Unfolding on the Actin Filament” (PLoS ONE, 2009).

Holding throughout (conditions): both partners purified
The target in data set [1] is T1, F-actin from chicken pectoral skeletal muscle (chicken, UniProt P68139 1-377). Kind of data set: co-sedimentation; tropomyosin 0.1–10 µM with 0.12–12 µM troponin T 70–170 (1.2× molar excess) and 5 µM F-actin, 20°C, 250 mM NaCl, 10 mM TrisHCl pH 7.5, 2 mM MgCl2, 0.5 mM DTT; pellets and supernatants by SDS-PAGE and densitometry; apparent constant (Kapp) and Hill coefficient from a fit to the Hill equation.

Data set [2] has as its target T1, F-actin from chicken pectoral skeletal …. Kind of data set: differential scanning calorimetry; tropomyosin 15 µM and TnT 70–170 18 µM with phalloidin (36 µM) stabilized F-actin (24 µM), 100 mM NaCl, 10 mM Hepes pH 7.0, 2 mM MgCl2, 1 mM DTT; three heating scans at 1°C/min; peak of unfolding/dissociation of actin-bound tropomyosin.
For data set [3] the target is unchanged. Kind of data set: light scattering temperature scan; unlabeled tropomyosin 6 µM, TnT 70–170, phalloidin (27 µM) stabilized F-actin (18 µM), 100 mM NaCl, 10 mM sodium phosphate pH 7.5, 2 mM MgCl2, 1 mM DTT; 90° scattering at 245 nm, 20–65°C at 1°C/min; temperature of 50% decrease in scattering.

B1: P2P3Shift tropomyosin (Y60A/L64A/L106A/A120L) (natural protein)
chain: MDAIKKKMQMLKLDKENALDRAEQAEADKKAAEDRSKQLEDELVSLQKKLKGTEDELDKASEAAKDAQEKLELAEKKATDAEADVASLNRRIQLVEEELDRAQERAATALQKLEEAEKALDESERGMKVIESRAQKDEEKMEIQEIQLKEAKHIAEDADRKYEEVARKLVIIESDLERAEERAELSEGKCAELEEELKTVTNNLKSLEAQAEKYSQKEDKYEEEIKVLSDKLKEAETRAEFAERSVTKLEKSIDDLEDELYAQKLKYKAISEELDHALNDMTSI
notes: striated muscle alpha-tropomyosin, rat, cDNA in pET11d, expressed with an unacetylated N-terminal Met; combines the P2Shift and P3Shift mutations; TnT 70-170 present in every actin experiment; source: E. coli BL21 (DE3), purified (ammonium sulfate fractionation, DE52 cellulose, hydroxylapatite)
Take B1: in data set [1], the Ka was 1.83e+06 M⁻¹. In addition, in data set [2], the “DSC TM of dissociation from F-actin (TM3)” value came out at 44.4 °C and the “DSC ΔΔH (with minus without F-actin)” value came out at 14.4 kcal/mol.

B2: tropomyosin P2Shift C190S/L71C, unlabeled (natural protein)
chain: not shown
notes: striated muscle alpha-tropomyosin, rat, cDNA in pET11d, expressed with an unacetylated N-terminal Met; Unlabeled form used for light scattering; source: E. coli BL21 (DE3), purified (ammonium sulfate fractionation, DE52 cellulose, hydroxylapatite)
Regarding B2, in data set [3], the “light scattering TM (half maximal dissociation from F-actin)” value amounted to 40.7 °C.

B3: tropomyosin P3Shift C190S/L113C, unlabeled (natural protein)
chain: not shown
notes: as for B2
In the case of B3, the “light scattering TM (half maximal dissociation from F-actin)” value in data set [3] came to 41.9 °C.
